Changes are numbered by the printed parent chain.
Legend:
human CLDN4 = target: T1, human CLDN4 (human, UniProt O14493 1-209); assay: flow cytometry on transiently transfected 293T cells
T1 construct: whole, on cells
T1 sequence (looked up): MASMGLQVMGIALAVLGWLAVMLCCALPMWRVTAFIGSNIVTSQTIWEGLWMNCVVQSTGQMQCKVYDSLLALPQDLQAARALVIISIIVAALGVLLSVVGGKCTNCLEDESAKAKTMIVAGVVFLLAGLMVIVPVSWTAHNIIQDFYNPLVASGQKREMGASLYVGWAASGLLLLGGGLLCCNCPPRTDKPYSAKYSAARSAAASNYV
Protocol: (§1) Binding activity of the mouse anti-CLDN6 antibodies produced in Example 6 to human CLDN6 and its family molecules, CLDN3, CLDN4, and CLDN9, was evaluated by using a flow cytometry method. Human CLDN3/pCMV6-Entry, human CLDN4/pCMV6-Entry, human CLDN6/pCMV-Entry, human CLDN9/pCMV6-Entry, or pCMV6-Entry purchased from OriGene Technologies, Inc. was transiently transferred into 293T cells (Thermo Fisher Scientific, HCL4517) by using Lipofectamine 2000 (Thermo Fisher Scientific), and the cells were cultured under conditions of 37° C. and 5% CO₂ overnight, and then a cell suspension was prepared. The transfected 293T cell suspension was centrifuged to remove the supernatant, and a mouse anti-CLDN6 antibody (clone number: B1 or C7) or a mouse IgG1 control antibody (R&D Systems, Inc.) was then added and suspended to a final concentration of 30 μg/mL, 10 μg/mL, 3.3 μg/mL, or 1.1 μg/mL, and the resultant was left to stand at 4° C. for 1 hour. The cells were washed twice with Dulbecco's phosphate buffered saline (Sigma-Aldrich Co. LLC) containing 5% fetal bovine serum (Hyclone) (hereinafter, referred to as 5% FBS-containing PBS), and FLUORESCEIN-CONJUGATED GOAT IGG FRACTION TO MOUSE IGG (WHOLE MOLECULE) (MP Biomedicals, Inc.) 500-fold diluted with 5% FBS-containing PBS was then added thereto, and the cells were suspended and left to stand at 4° C. for 1 hour. After washing twice with 5% FBS-containing PBS, detection was carried out by using a flow cytometer (FC500; Beckman Coulter, Inc.). Data analysis was carried out by using FlowJo (Tree Star, Inc.). To confirm each transfection, the cells were permeabilized with 0.25% Tween 20-containing PBS, and then a mouse anti-FLAG antibody (Sigma-Aldrich Co. LLC) was used. […] In each graph in FIG. 11, the ordinate represents FITC fluorescence intensity indicating the amount of the binding antibody and the abscissa represents antibody concentrations.
(§2) The binding activity of the humanized anti-CLDN6 antibody produced in Example 10 to human CLDN6 and its family molecules, CLDN3, CLDN4, and CLDN9, was evaluated by using a flow cytometry method.

human CLDN3 = target: T2, human CLDN3 (human, UniProt O15551 1-220); assay: as above
T2 construct: whole, on cells
T2 sequence (looked up): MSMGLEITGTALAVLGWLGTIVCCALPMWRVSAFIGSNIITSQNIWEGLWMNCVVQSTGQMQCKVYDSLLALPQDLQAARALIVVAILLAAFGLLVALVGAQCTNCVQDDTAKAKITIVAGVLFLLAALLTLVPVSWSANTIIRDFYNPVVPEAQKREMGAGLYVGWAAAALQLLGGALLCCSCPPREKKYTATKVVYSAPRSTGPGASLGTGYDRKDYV
Protocol: as §1, §2

human CLDN6 [1] = target: T3, human CLDN6 (human, UniProt P56747 1-220); assay: immunoprecipitation from NTERA-2 cell lysate with 218B1, SDS-PAGE, mass spectrometry of the 18 kDa band
T3 construct: Four-transmembrane protein; It was expressed on 293T cells from human CLDN6/pCMV-Entry (OriGene) and on CHO-K1 cells by cDNA transfection; it was endogenous in the NTERA-2 lysate used for immunoprecipitation; also called claudin-6; human claudin-6
T3 sequence: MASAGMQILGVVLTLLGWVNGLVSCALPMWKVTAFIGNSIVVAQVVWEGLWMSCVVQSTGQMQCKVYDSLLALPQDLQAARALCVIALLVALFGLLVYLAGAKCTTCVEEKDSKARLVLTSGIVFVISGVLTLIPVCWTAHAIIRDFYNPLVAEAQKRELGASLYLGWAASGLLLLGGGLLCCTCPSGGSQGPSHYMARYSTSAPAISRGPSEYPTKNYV
Protocol: 2×10⁷ NTERA-2 cells were collected and washed twice with PBS. The cells were collected by using a cell scraper, and centrifuged at 1500 rpm for 5 minutes. After the supernatant was removed, the cells were resuspended in 2 mL of the lysis buffer, and treated at 4° C. for 30 minutes. The resultant was centrifuged (13000 rpm, 20 minutes, 4° C.) to prepare a cell lysate. Protein G Sepharose/lysis buffer (50% slurry; 180 μL) was added to the cell lysate, and the resultant was rotated at 4° C. for 30 minutes and then centrifuged at 4° C. for 1 hour, and the supernatant was collected. The 218B1 antibody (about 9 μg) was added to the supernatant, and the resultant was rotated at 4° C. for 30 minutes, to which Protein G Sepharose/lysis buffer (50% slurry; 180 μL) was then added, and the resultant was rotated at 4° C. for 1 hour. The Protein G Sepharose was washed six times with the lysis buffer (1 mL), and then resuspended in 1×SDS sample buffer. After the suspension was treated at 100° C. for 5 minutes, the solution was collected as a sample for SDS-PAGE. SDS-PAGE was carried out in the same manner as in 2-2), and the electrophoresis gel was stained with CBB. The part corresponding to 18 kDa was cut out of the electrophoresis gel, and subjected to mass spectrometry.

human CLDN9 [2] = target: T4, human CLDN9 (human, UniProt O95484 1-217); assay: flow cytometry on transiently transfected 293T cells, 1.1-30 µg/mL
T4 construct: Expressed on 293T cells from human CLDN9/pCMV6-Entry (OriGene); Transfection was confirmed with an anti-FLAG antibody
T4 sequence: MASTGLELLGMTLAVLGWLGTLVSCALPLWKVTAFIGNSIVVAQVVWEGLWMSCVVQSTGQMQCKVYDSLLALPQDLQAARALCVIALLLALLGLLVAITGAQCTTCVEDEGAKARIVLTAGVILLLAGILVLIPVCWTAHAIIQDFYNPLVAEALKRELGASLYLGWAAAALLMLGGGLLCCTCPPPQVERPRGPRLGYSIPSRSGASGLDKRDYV
Protocol: Binding activity of the mouse anti-CLDN6 antibodies produced in Example 6 to human CLDN6 and its family molecules, CLDN3, CLDN4, and CLDN9, was evaluated by using a flow cytometry method. Human CLDN3/pCMV6-Entry, human CLDN4/pCMV6-Entry, human CLDN6/pCMV-Entry, human CLDN9/pCMV6-Entry, or pCMV6-Entry purchased from OriGene Technologies, Inc. was transiently transferred into 293T cells (Thermo Fisher Scientific, HCL4517) by using Lipofectamine 2000 (Thermo Fisher Scientific), and the cells were cultured under conditions of 37° C. and 5% CO₂ overnight, and then a cell suspension was prepared. The transfected 293T cell suspension was centrifuged to remove the supernatant, and a mouse anti-CLDN6 antibody (clone number: B1 or C7) or a mouse IgG1 control antibody (R&D Systems, Inc.) was then added and suspended to a final concentration of 30 μg/mL, 10 μg/mL, 3.3 μg/mL, or 1.1 μg/mL, and the resultant was left to stand at 4° C. for 1 hour. […] In each graph in FIG. 11, the ordinate represents FITC fluorescence intensity indicating the amount of the binding antibody and the abscissa represents antibody concentrations.

human CLDN6 [3] = target: T3, human CLDN6; assay: FACS on CHO-K1 cells transfected with human claudin-6 cDNA
human CLDN6 [4] = target: T3, human CLDN6; assay: flow cytometry on transiently transfected 293T cells, 0.8-100 nM
Protocol: (§3) The binding activity of the humanized anti-CLDN6 antibody produced in Example 10 to human CLDN6 and its family molecules, CLDN3, CLDN4, and CLDN9, was evaluated by using a flow cytometry method. Used were 293T cells transiently transfected in the same manner as in Example 7-1. To cells into which a human CLDN6 or human CLDN9 gene had been transferred, the humanized anti-CLDN6 antibody H1L1, H2L2, H1L3, H2L4, or H3L3, or a human IgG1 control antibody (Calbiochem) was added and suspended to a final concentration of 100 nM, 20 nM, 4 nM, or 0.8 nM, and the resultant was left to stand at 4° C. for 30 minutes. To cells into which a human CLDN3 or human CLDN4 gene, or an empty vector had been transferred, the humanized anti-CLDN6 antibody H1L1, H2L2, H1L3, H2L4, or H3L3 was added and suspended to a final concentration of 100 nM, and the resultant was left to stand at 4° C. for 30 minutes. The cells were washed with Dulbecco's phosphate buffered saline (Sigma-Aldrich Co. LLC) containing 5% fetal bovine serum (Hyclone) (hereinafter, referred to as 5% FBS-containing PBS), and FITC AffiniPureF (ab′)2 Fragment Goat Anti-Human IgG (H+L) (Jackson ImmunoResearch Laboratories Inc.) 150-fold diluted with 5% FBS-containing PBS was then added thereto, and the cells were suspended and left to stand at 4° C. for 30 minutes. After washing with 5% FBS-containing PBS, detection was carried out by using a flow cytometer (FC500; Beckman Coulter, Inc.). Data analysis was carried out by using FlowJo (Tree Star, Inc.), and mean fluorescence intensity (MFI) of FITC, which indicates the amount of the binding antibody, was calculated. […] In each graph in FIG. 13, the abscissa represents antibody concentrations and the ordinate represents MFI.

human CLDN9 [5] = target: T4, human CLDN9; assay: as above
Protocol: as §3

B1: mouse anti-CLDN6 antibody B1 (antibody, V domains shown)
VH: EVQLQQSGPELVKPGASVKISCKTSGYTFTEYTMHWVQQSHGKSLEWIGGVNPNSGDTSYNQKFKGKATLTVDKSSSTAYMELRSLTSEDSAVYYCARPGGYDVGYYAMDYWGQGTSVTVSS
VL: DIQMTQTASSLSASLGDRVTISCRASQDINNYLNWYQQKPDGTVKLLIYFTSRLHSGVPSRFSGSGSGTHYSLTITNLEQEDIATYFCQQGYPLPWTFGGGTKLEIK
notes: Mouse monoclonal antibody purified from hybridoma 218B1 culture supernatant; also called B1 antibody; 218B1
binding result (human CLDN4): no binding (tested: 30 µg/mL (highest concentration tested))
binding result (human CLDN3): no binding (tested: 30 µg/mL (highest concentration tested))
binding result (human CLDN6 [1]): binds
binding result (human CLDN9 [2]): binds

B2: mouse anti-CLDN6 antibody C7 (antibody, V domains shown)
VH: B1 VH
VL: B1 VL with F50S, N77H
notes: Mouse monoclonal antibody purified from hybridoma 218C7 culture supernatant; also called C7 antibody; 218C7
binding result (human CLDN6 [3]): binds
binding result (human CLDN4): no binding (tested: 30 µg/mL (highest concentration tested))
binding result (human CLDN3): no binding (tested: 30 µg/mL (highest concentration tested))
binding result (human CLDN9 [2]): binds

B3: humanized anti-CLDN6 antibody H1L3 (antibody, human IgG1, kappa, L234A L235A, V domains shown)
VH: QVQLVQSGAEVKKPGASVKVSCKASGYTFTEYTMHWVRQAPGQGLEWMGGVNPNSGDTSYAQKFQGRVTITADTSTSTAYMELSSLRSEDTAVYYCARPGGYDVGYYAMDYWGQGTLVTVSS
VL: DIQMTQSPSSLSASVGDRVTITCRASQDINNYLNWYQQKPGGAVKLLIYFTSRLHSGVPSRFSGSGSGTDYTLTISSLQPEDFATYYCQQGYPLPWTFGGGTKVEIKR
notes: Human IgG1 LALA heavy chain and human kappa light chain; also called H1L3 antibody; hH1 + hL3
binding result (human CLDN6 [4]): binds
binding result (human CLDN9 [5]): binds
binding result (human CLDN4): no binding (tested: 100 nM)
binding result (human CLDN3): no binding (tested: 100 nM)

B4: humanized anti-CLDN6 antibody H1L1 (antibody, human IgG1, kappa, L234A L235A, V domains shown)
VH: B3 VH
VL: B3 VL with G42K, V44P, G100Q
notes: Human IgG1 LALA heavy chain and human kappa light chain; also called H1L1 antibody; hH1 + hL1
binding result (human CLDN6 [4]): binds
binding result (human CLDN9 [5]): binds
binding result (human CLDN4): no binding (tested: 100 nM)
binding result (human CLDN3): no binding (tested: 100 nM)

B5: humanized anti-CLDN6 antibody H3L3 (antibody, human IgG1, kappa, L234A L235A, V domains shown)
VH: B3 VH with Q1E, A24T, I70L, A72V, T74K
VL: B3 VL
notes: Human IgG1 LALA heavy chain and human kappa light chain; also called H3L3 antibody; hH3 + hL3
binding result (human CLDN6 [4]): binds
binding result (human CLDN9 [5]): binds
binding result (human CLDN4): no binding (tested: 100 nM)
binding result (human CLDN3): no binding (tested: 100 nM)

B6: humanized anti-CLDN6 antibody H2L4 (antibody, human IgG1, kappa, L234A L235A, V domains shown)
VH: B3 VH with Q1E, A24T, Q43K, G44S
VL: B3 VL with Y92N, P93T
notes: Human IgG1 LALA heavy chain and human kappa light chain; also called H2L4 antibody; hH2 + hL4
binding result (human CLDN6 [4]): binds
binding result (human CLDN9 [5]): binds
binding result (human CLDN4): no binding (tested: 100 nM)
binding result (human CLDN3): no binding (tested: 100 nM)

B7: humanized anti-CLDN6 antibody H2L2 (antibody, human IgG1, kappa, L234A L235A, V domains shown)
VH: B3 VH with Q1E, A24T, Q43K, G44S
VL: B3 VL with G42K, D70H, G100Q
notes: Human IgG1 LALA heavy chain and human kappa light chain; also called H2L2 antibody; hH2 + hL2
binding result (human CLDN6 [4]): binds
binding result (human CLDN9 [5]): binds
binding result (human CLDN4): no binding (tested: 100 nM)
binding result (human CLDN3): no binding (tested: 100 nM)
